Data from patent publication US20240336900A1, “METHODS AND COMPOSITIONS RELATED TO MODIFIED METHYLTRANSFERASES AND ENGINEERED BIOSENSORS” (BOARD OF REGENTS, THE UNIVERSITY OF TEXAS SYSTEM, priority 2023, published 2024).
Positions count from the first letter of the chain named. Names and notes keep the numbering of the source.

B1: Wild-type Nb4OMT: natural norbelladine 4′-O-Methyltransferase from Narcissus pseudonarcissus (protein)
chain: MGASIDDYSLVHKNILHSEDLLKYILETSAYPREHEQLKGLREVTEKHEWSSALVPADEGLFLSMLLKLMNAKRTIEIGVYTGYSLLTTALALPEDGKITAIDVNKSYYEIGLPFIQKAGVEHKINFIESEALPVLDQMLEEMKEEDLYDYAFVDADKSNYANYHERLVKLVRIGGAILYDNTLWYGSVAYPEYPGLHPEEEVARLSFRNLNTFLAADPRVEISQVSIGDGVTICRRLY
modifications: Description of sequence: Natural enzyme, norbelladine 4'-O-Methyltransferase
notes: natural norbelladine 4′-O-Methyltransferase from Narcissus pseudonarcissus
B2: A53M mutant: Nb4OMT variant with mutation A53M (protein)
chain: B1 chain with A53M
modifications: Description of sequence: Improved enzyme variant A53M

Key:
[1] = Steady state kinetics of purified Nb4OMT variants; format: biochemical; details: for kcat: 3.5 nM enzyme, 500 μM SAM, 37° C., PBS pH 7.5; for Km: calculated by dividing kcat by kcat/Km
Experimental: Reactions for kinetics measurements were performed in triplicate for all enzyme variants. For each variant 1.5 ml reactions containing 3.5 nM of enzyme, 500 μM SAM, 2 mM CaCl2), and 15.625, 31.25, 62.5, 125, 250, or 500 μM norbelladine in PBS pH 7.5 were incubated at 37° C. for 4 hours. Every hour a 200 μl aliquot of each reaction was quenched by pipetting it into a 1.5 ml microcentrifuge tube with 20 μl of 2M HCl. The concentration of 4′-O-Methylnorbelladine was then determined using HPLC as described.
Kinetic data were fit in KinTek Explorer simulation and data fitting software v11 (Roy, 2018). The following minimal model was used as an input. Each line represents a step in the model and the forward reaction goes from left to right while the reverse reaction goes from right to left as written. • (1) E+S=ES • (2) ES=EP • (3) EP=E+P • (4) S=P2
3.5 nM enzyme and 15.625, 31.25, 62.5, 125, 250, and 500 M substrate. The output observable was defined as EP+P. Substrate oxidation was modeled in step (4) as irreversible with a best fit value from globally fitting data from all variants to derive k4=0.00547 min^−1.To get kout/Km and kcat: k−1, k−2, and k−3 were locked at 0 min-1 (irreversible reactions). k+3 was locked at 10,000 min-1 as to not limit the rate of turnover. k+1 and k+2 were used as variable parameters in the fitting. Under these conditions, k+2=kcat and k+1=kcat/Km. For estimates of 95% confidence intervals on kinetic parameters, confidence contour analysis was used with the FitSpace function in KinTek Explorer (Bhattacharya, 2015). Confidence contour plots are calculated by systematically varying a single rate constant and holding it fixed at a particular value while refitting the data, allowing other rate constants to float. The goodness of fit was scored by the resulting χ^2 value. The confidence interval is defined based on a threshold in χ^2 calculated from the F-distribution based on the number of data points and number of variable parameters to give the 95% confidence limits. For the data given in FIGS. 20A-20C, this threshold was 0.85 to estimate the upper and lower limits for each parameter. […] We then fit the data for these two variants to the model shown below, accounting for substrate inhibition.
As before, k+1 was allowed to float in the fitting to give kcat/Km, and k−1 was locked at 0 min^−1, k+2 was allowed to float in the fitting to give kcat, and k−2 was locked at 0 min^−1. k+3 was locked at 10,000 min^−1, and k−3 was locked at 0 min^−1. k+4 and k+6 were locked at 100 μM^−1 min^−1, and k−4 and k−6 were allowed to float in the fitting as linked parameters. k+5 was linked to k+1 and k−5 was locked at 0 min^−1. k−7 was locked at 0 min^−1, and k+7 was locked at 0.00547 min^−1.

[2] = HPLC and LC/MS analysis of in vivo Nb4OMT reaction supernatant; format: cell-based, Escherichia coli
Experimental: Assay samples were filtered using a 0.2-um PTFE syringe filter prior to running the HPLC. The measurement of Norbelladine and 4-O'Methyl-norbelladine was performed using a Vanquish HPLC system (Thermo Fisher Scientific) equipped with a BDS Hypersil TM C18 (3.0×150 mm 2, 3 um) (Thermo Fisher Scientific) with detection wavelength 277 nm. The mobile phase consisted of 0.1% formic acid in water or 0.1% formic acid in acetonitrile over the course of 28 minutes under the following conditions: 10% organic (vol/vol) for 2 minutes, 10 to 30% organic (vol/vol) for 13 minutes, 30 to 90% organic (vol/vol) for 0.1 minutes, 90% organic (vol/vol) for 4.9 minutes, 90 to 10% organic (vol/vol) for 1 minute, and 10% organic (vol/vol) for 7 minutes. The flow rate was fixed at 0.8 ml min-1. A standard curve for norbelladine was prepared using synthesized norbelladine (see Chemical synthesis and NMR analysis of norbelladine). A standard curve for 4-O'Methyl-norbelladine was prepared using commercially available 4-O'Methyl-norbelladine.
Cells containing the plasmid expressing each Nb4OMT variant with the P150-RBS (RiboJ) promoter were transformed and plated onto an LB agar plate containing appropriate antibiotics. […]
Samples were analyzed using an Agilent 6530 Q-TOF LC-MS with a dual Agilent Jet Stream electrospray ionization source in positive mode. […]

[3] = Differential scanning fluorimetry; format: physicochemical; details: for Tm: 5 μM protein, SYPRO Orange
Experimental: Purified Nb4OMT variants in the concentration of 5 μM were prepared in 96-well low-profile PCR plates (ABgene, Thermo Scientific). 10×SYPRO® Orange (Molecular Probes) was added into each well and mixed prior to measurement in an RT-PCR machine (LightCycler 480, Roche). The protein melting experiments were carried out with a continuous temperature acquisition mode using 10 acquisitions per 1° C. in each cycle from 20° C. to 95° C. The melting curves of the Nb4OMT variants were monophasic and Tm values were derived using Boltzmann equation.

[4] = Biosensor-linked O-methyltransferase activity assay; format: cell-based, Escherichia coli; details: single mutational designs; 25, 30, 37 °C; 100 uM, 1 mM norbelladine
Experimental: Nb4OMT was expressed with the P150-RBS (riboJ) promoter-RBS on the pReg-RamR plasmid backbone (no regulator present). Cells were co-transformed with both the 40MT plasmid and the 4NB reporter plasmid and plated on an LB agar plate containing appropriate antibiotics. Three individual colonies from each transformation were picked into LB and grown overnight. Resulting cultures were diluted 50-fold into 1 ml LB medium containing the indicated concentration of norbelladine in a 96-deep-well plate and were grown at the indicated temperature for 24 h. Subsequently, the fluorescence of cultures was measured in the same manner as previously described in Dose-response measurement above.

Row | Molecule | kcat [1] [s⁻¹] | Km [1] [µM] | regiospecificity ([2]; 3-OMe-norbelladine identified as minor component) | Tm [3] [°C] | increase in keut relative to the wild-type enzyme [1] [fold] | increase of kcal/Km relative to the wild-type enzyme [1] | substrate inhibition ([1]; steady state kinetic data, highest norbelladine concentration) | reduction of 3-O'Methyl-norbelladine off-product ([2]; relative to wild-type Nb4OMT) | increase in Tm relative to the wild-type enzyme [3] [°C] | fluorescent signal relative to the wild-type enzyme [4]
1 | B1 | 1.22 | 62 | not highly regiospecific | 52.8 |  |  |  |  |  | 
2 | B2 | >3.17 | < 90 |  | 54.5 | > 2.1 | about 2 fold | affected by substrate inhibition | about 3 fold | 1.7 | significantly above the wild-type enzyme
